Article PMC6023178, “Crystal structure of the C-terminal four-helix bundle of the potassium channel KCa3.1” (PLoS ONE, 2018)
Square brackets hold non-standard residues; d marks the D form. Ends that are not written are not given here. SeMet = C[Se]CC[C@H](N)C(=O)O

How the values were obtained:
[1] = target: the molecule itself; test: crystal structure; native KCa3.1-CC crystallised without copper (apo); 0.1 M imidazole (pH 6.5), 1.0 M sodium acetate; 1.75 Å, molecular replacement, only partially refined
[2] = target: the molecule itself; test: crystal structure; SeMet-containing KCa3.1-CC crystallised with 3 mM CuCl2; 0.1 M imidazole (pH 6.5), 1.0 M sodium acetate; space group P4212, 1.75 Å; four-helix bundle generated by the crystallographic four-fold axis

Row | Protein | binding result [1] | stoichiometry N [2]
1 | MILYDLQQNLSSSHRALEKQIDTLAGKLDALTELLSTALG (domain or fragment, UniProt O15554 376-415, looked up, KCa3.1 (SK4, IK1), human, C-terminal coiled-coil region, residues 376-415; Crystallised without copper (apo); also called native, apo KCa3.1-CC; source: E. coli BL21-Gold(DE3)pLysS, purified (GST-trap, thrombin cleavage, Superdex 75); not shown: GST, N-terminal, cleaved) [native KCa3.1-CC (C-terminal coiled-coil region of human KCa3.1, residues 376-415)] | binds | –
2 | [SeMet]ILYDLQQNLSSSHRALEKQIDTLAGKLDALTELLSTALG (domain or fragment, UniProt O15554 376-415, looked up, KCa3.1 (SK4, IK1), human, C-terminal coiled-coil region, residues 376-415; residues 376-414 are in the atomic model; Crystallised in the presence of 3 mM CuCl2; a Cu(II) ion is coordinated by the four copies of His389; also called SeMet KCa3.1-CC; SeMet SK4-CC (w/copper); source: E. coli B834(DE3), PASM-5052 auto-induction medium, purified (GST-trap, thrombin cleavage, Superdex 75); not shown: …) [SeMet-containing KCa3.1-CC (C-terminal coiled-coil region of human KCa3.1, residues 376-415)] | – | 4
